In paper PMC5022061, “A Rapid and Efficient Luminescence-based Method for Assaying Phosphoglycosyltransferase Enzymes” (Scientific Reports, 2016):

Legend:
[1] = biological target: T1, PglC from H. pullorum (PglC (H. pu)) (Helicobacter pullorum, UniProt E1B268); assay: UMP-Glo luminescence (UMP release), time course; type: biochemical; conditions: 20 μM UDP-GlcNAc; 20 μM Und-P; 0.3 μM enzyme; 5 mM MgCl2; pH 7.5; 0.1% Triton X-100; 10% DMSO
T1 construct: N-terminal His6-SUMO tag, tag cleavage not mentioned; E. coli BL21-RIL; DDM-solubilized membrane fraction, Ni-NTA
T1 sequence (E1B268 entry or part of it): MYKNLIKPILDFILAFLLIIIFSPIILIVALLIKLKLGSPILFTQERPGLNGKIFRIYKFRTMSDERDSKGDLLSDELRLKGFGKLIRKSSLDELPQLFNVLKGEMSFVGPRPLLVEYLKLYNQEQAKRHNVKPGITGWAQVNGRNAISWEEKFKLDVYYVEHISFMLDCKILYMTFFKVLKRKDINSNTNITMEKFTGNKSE

[2] = tested on: CC(C)=CCC/C(C)=C/CC/C(C)=C/CC/C(C)=C\CC/C(C)=C\CC/C(C)=C\CC/C(C)=C\CC/C(C)=C\CC/C(C)=C\CC/C(C)=C\CC/C(C)=C\COP(=O)(O)O; assay: purified protein; conditions: 80 μM UDP-diNAcBac, 5 mM MgCl2, pH 7.5, room temperature, 0.1% Triton X-100, 10% DMSO
[3] = tested on: CC(=O)N[C@H]1[C@@H](OP(=O)(O)OP(=O)(O)OC[C@H]2O[C@@H](n3ccc(=O)[nH]c3=O)[C@H](O)[C@@H]2O)O[C@H](C)[C@@H](NC(C)=O)[C@@H]1O; assay: purified protein; conditions: 60 μM Und-P, 5 mM MgCl2, pH 7.5, room temperature, 0.1% Triton X-100, 10% DMSO

Question: `CC(=O)N[C@H]1[C@@H](OP(=O)(O)OP(=O)(O)OC[C@H]2O[C@@H](n3ccc(=O)[nH]c3=O)[C@H](O)[C@@H]2O)O[C@H](CO)[C@@H](O)[C@@H]1O` [UDP-GlcNAc] was tested. Which “UMP-Glo luminescence (UMP release), time course” value [1] did it give?
Answer: demonstrates that the H. pullorum PglC catalyzes turnover of these substrates

Question: With `CC(C)=CCC/C(C)=C/CC/C(C)=C/CC/C(C)=C\CC/C(C)=C\CC/C(C)=C\CC/C(C)=C\CC/C(C)=C\CC/C(C)=C\CC/C(C)=C\CC/C(C)=C\COP(=O)(O)O` [Und-P] as the compound, how does the “UMP-Glo luminescence (UMP release), time course” value [1] read?
Answer: demonstrates that the H. pullorum PglC catalyzes turnover of these substrates

Question: Which results are given for “PglC from Campylobacter jejuni (SUMO-PglC) (Campylobacter jejuni subsp. jejuni NCTC 11168 = ATCC 700819)”?
Answer: Km [2]: 7.18 ± 1.37 µM; kcat [2]: 5.17 ± 0.333 s⁻¹; Km [3]: 24.61 ± 3.30 µM; kcat [3]: 5.67 ± 0.333 s⁻¹
